In US20250026792A1, “SELF-ASSEMBLING PEPTIDES WITH HYALURONIC ACID BINDING DOMAINS AND METHODS OF USE THEREOF” (Northwestern University, priority 2022, published 2025):
Entries after “also recorded” stand apart in the source; their conditions may differ.

What was measured:
[1] = ECM specificity binding test, hyaluronic acid coating; conditions: 5.0 mg/ml peptide, FIG. 4
Protocol: (§1) Peptides were incubated 24 hours at 37° C. on collagens I-IV, elastin, hyaluronic acid, and Geltrex. Coatings (10 pig/cm^2) were previously dried overnight in milli-Q water. Overall significance was assessed using analysis of variance, with Tukey's multiple comparison post-hoc analysis between ECM groups where n=4.
(§2) Hyaluronic acid, collagens I, II, III, and IV, elastin, and Geltrex were coated onto 96-well black plates (medium binding affinity) at 10 μg/cm^2 and were dried in milli-Q water at room temperature. N-termini biotinylated peptides were added to coated plates at 0, 1, 2.5, 5 and 10 mg/ml overnight at 37° C. in phosphate buffered saline (PBS), pH 7.4, after which the plates were washed three times with PBS. Fluorescent streptavidin-488 (4 μg/mL) was added to each well and incubated at 37° C. temperature for 24 hours, then thoroughly washed with PBS. The plates were read with a fluorescence microplate reader for fluorescence intensity (Ex 490 nm, Em 525 nm). All data were normalized to the background fluorescence intensity of Streptavidin-488.

[2] = 1H NMR of supernatant of peptide-hyaluronic acid mixtures (loss of HA and peptide from solution); assay type: binding; conditions: 5 mg/mL HA
Protocol: FIGS. 7A-7C show Nuclear magnetic resonant (NMR) proton spectra of representative (i) hyaluronic acid peaks and (ii) biotinyl peptide peaks and for (FIG. 7A) mPEP35, (FIG. 7B) 1-scrm, and (FIG. 7C) 17x-3 in 25 mM sodium acetate buffer at pH 5.2. Samples represent supernatant (soluble component) of mixtures with 5 mg/mL HA in variable peptide mixture of 1.25, 2.5. and 5 mg/mL.
Peptides and HA were suspended in 25 mM sodium acetate buffer (pH 5.2), made up from 19 mM sodium acetate-d3, 6 mM acetic acid-d4, 10% D2O, and 1 mg/ml DSS-D6. All samples were centrifuged at 21,000 G to remove precipitate and the supernatant was collected for analysis, as only the liquid suspension could be used. NMR spectra were collected on an Avance NEO 600 MHz spectrometer at 298K with excitation sculpting used to suppress the water signal. Number of scans and receiver gain were identical for all NMR spectra.
As higher peptide binding was accompanied by apparent gel-like structure on the substrate, the binding event may be characterized by the change in concentration of either peptide or HA remaining in the solution. ^1H NMR is an ideal method for measuring changes in concentration in solution. It provides atom-specific information that can be used to distinguish signals of biotinylated peptides (6.4 ppm) from those of hyaluronic acid (3.5 ppm) as presented in FIG. 7. Sodium acetate (pH 5.2) was chosen as the buffer since it provides better spectral quality of the amide signals than pH 7.4 buffer. Focus was placed on characterizing the binding of mPEP35, 1-scrm, and 17x-3, which reflect a positive control, a negative control, and a potent binder, respectively. Measurements were taken after centrifugation to remove gel that formed when peptide and HA are mixed. It should be noted that only HN peaks of the peptide show slight chemical shift perturbation upon addition of HA.

[3] = Transmission electron microscopy (TEM) of peptide nanostructures; assay type: physicochemical
Protocol: The sample and stain were filter-dried in between steps. Samples were collected 24 hours at 37° C. after 30 minutes of sonication. All TEM was performed on a Philips FEI Technai Spirit G2 electron microscope. Peptides were incubated in both PBS and SC.

[4] = Circular dichroism (CD) of peptides; assay type: physicochemical; conditions: 20 mM Sodium Cacodylate; for Ellipticity ratio (222 nm/208 nm) / Ellipticity 208 nm / Ellipticity 222 nm: 1.25 mg/mL; for Ellipticity 208 nm / Ellipticity 222 nm: CD data given as [θ]M×10^−3; for wavelength Minimum of CD profile: 5.0 mg/mL
Protocol: Data is presented in ellipticity ([θ]M×10^−3) as a function of spectral wavelength (λ).
Sodium cacodylate (SC), 20 mM pH 7.4, without and with 20% TFE was used to reduce phosphate related background signal and enhance detected structures. Circular dichroism (CD) data were collected in millidegrees, 0, and converted to molar ellipticity, [θ]M, and are expressed in units of deg×cm^2×dmol^−1. Scan speeds and digital integration times were 500 nm/min and 1 second, respectively. The data on the Y axis of the CD plots is [θ]M×10^−3. […] Consequently, CD signals are reported in the 190-260 nm range.

[5] = tested on: extracellular matrix (ECM) components: Collagen type I, II, III and IV, elastin, hyaluronic acid and Geltrex; assay: ECM specificity binding test, whole panel; conditions: 5.0 mg/ml peptide, FIG. 4
Protocol: as §1, §2

[6] = Concentration-dependent peptide binding to hyaluronic acid coating (biotin-streptavidin fluorescence)
Protocol: Peptides were incubated 24 hours at 37° C. Coatings (10 μg/cm^2) were previously dried overnight in milli-Q water. Overall significance was assessed using analysis of variance, with Tukey's multiple comparison post-hoc analysis between 1-scrm and experimental groups where n=4.
N-termini biotinylated peptides were added to coated plates at 0, 1, 2.5, 5 and 10 mg/ml overnight at 37° C. in phosphate buffered saline (PBS), pH 7.4, after which the plates were washed three times with PBS.

- binding to hyaluronic acid in specificity testing [1]: binds primarily
- binding to the ECMs (for 17x-3: the ECMs other than hyaluronic acid) [5]: does not bind significantly
- specificity of binding to ECMs [5]: high specificity
- binding to hyaluronic acid with increasing concentrations of peptide (fluorescence intensity) ([6]; 0-10 mg/ml peptide, PBS pH 7.4, 37° C., HA coating 10 μg/cm^2, FIG. 3): increases dramatically
- HA binding compared to mPEP35 ([6]; higher concentrations (5-10 mg/ml)): significantly stronger binder
Sequence: KTKATVLIKNKQKSKNALKQKIVLLSK [Peptide 17x-3, de novo designed peptide with five B(X7)B domains]
- HA spectra retained ([2]; 1.25 mg/mL peptide): ~80%
- HA spectra / removal of HA from solution ([2]; 2.5 and 5 mg/mL peptide): nearly gone; also recorded: almost entirely removed; also recorded: pull all HA out of solution
- peptide removed from solution ([2]; 2.5 to 5 mg/mL peptide): ~90%
- TEM characterization, Phosphate Buffered Saline (i) ([3]; PBS pH 7.4, 0.5% w/v, 30 minutes sonication, 24 hrs at 37° C.): fibers with many striations form larger fibers and the larger fibers tend to form a mesh network
- nanofiber formation in TEM, overall ([3]; both PBS and sodium cacodylate): consistent nanofibers; also recorded: predominantly form fibers with striations and furthermore form a mesh network
- Ellipticity ratio (222 nm/208 nm) [4]: 0.48
- Ellipticity 208 nm [4]: −135
- Ellipticity 222 nm [4]: −64.4
- wavelength Minimum of CD profile [4]: 223 nm
- Ellipticity ratio (222 nm/208 nm) ([4]; 20% TFE): 0.72
- Ellipticity 208 nm ([4]; 20% TFE): −175
- Ellipticity 222 nm ([4]; 20% TFE): −126
- wavelength Minimum of CD profile ([4]; 20% TFE): 221 nm
- HA binding, overall assessment ([6]; summary and discussion statements): proficient and specific binders; also recorded: HA specific and robust binders
